These results are taken from the supplement of paper PMC7877785.

A short description of this data set: self-splicing fitness, log relative to wild type (ln ratio); higher = more splicing; Tetrahymena group I intron in knt gene, E. coli kanamycin selection, DiMSum; sequences stand for … in CUCUCU…GGAGGGAAAAGUUAUCAGGCAUGCACCUGGUAGCUAGUCUUUAAACCAAUAGAUUGCAUCGGUUUAAAAGGCAAGACCGUCAAAUUGCGGGAAAGGGGUCAACAGCCGUUCAGUACCAAGUCUCAGGGGAAACUUUGAGAUGGCCUUGCAAAGGGUAUGGUAAUAAGCUGACGGACAUGGUCCUAACCACGCAGCCAAGUCCUAAGUCAACAGAUCUUCUGUUGAUAUGGAUGCAGUUCACAGACUAAAUGUCGGUCGGGGAAGAUGUAUUCUUCUCAUAAGAUAUAGUCGGACCUCUCCUUAAUGGGAGCUAGCGGAUGAAGUGAUGCAACACUGGAGCCGCUGGGAACUAAUUUGUAUGCGAAAGUAUAUUGAUUAGUUUUGGAGUACUCGUGGUCG
The procedure, abridged: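 DiMSum derived fitness as the error-weighted combination of fold changes across replicates, kanamycin versus no kanamycin, normalised to wild type. E. coli BL21(DE3) held the library, which randomised all eight P1ex-region intron nucleotides within the knt kanamycin-resistance gene on pET-22b(+). Six replicate transformations grew overnight at 37°C or 30°C on LB agar with or without 25 μg/mL kanamycin, also containing 100 μg/mL carbenicillin, 50 μM IPTG and 0.2% rhamnose, and pooled colonies were amplicon-sequenced on an Illumina HiSeq 2500.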

± gives the uncertainty stated by the source.

On to GAGUAGCAAUAUUACGAUCA, for which the “self-splicing fitness (ln)” value is 0.0664 ± 0.19 (30 °C) and -0.761 ± 0.21 (37 °C).

For the sequence GAGUAGCAAUAUUACGAUCC, the “self-splicing fitness (ln)” value by setting is: (30 °C) -1.55 ± 0.092; (37 °C) -0.509 ± 0.11.

GAGUAGCAAUAUUACGAUGU: the “self-splicing fitness (ln)” value reads like this: (30 °C) -2.23 ± 0.11; (37 °C) -0.716 ± 0.12.

Take GAGUAGCAAUAUUACGAUUA: the “self-splicing fitness (ln)” value is, setting by setting: (30 °C) -0.577 ± 0.092; (37 °C) -0.317 ± 0.081.

As for GAGUAGCAAUAUUACGGACU, the “self-splicing fitness (ln)” value runs as follows: (30 °C) -0.25 ± 0.072; (37 °C) -0.487 ± 0.096.

Take GAGUAGCAAUAUUACGGAGG: the “self-splicing fitness (ln)” value (30 °C) is -3.45 ± 0.36 and the “self-splicing fitness (ln)” value (37 °C) is -0.837 ± 0.36.

As for GAGUAGCAAUAUUACGGGCA, the “self-splicing fitness (ln)” value by setting is: (30 °C) -1.18 ± 0.22; (37 °C) -1.05 ± 0.19.

As to GAGUAGCAAUAUUACGGGUC, the “self-splicing fitness (ln)” value is, setting by setting: (30 °C) -2.57 ± 0.2; (37 °C) -1.81 ± 0.18.

Consider GAGUAGCAAUAUUACGGGUG, for which the “self-splicing fitness (ln)” value is -2.78 ± 0.14 (30 °C) and -1.71 ± 0.14 (37 °C).

Turning to GAGUAGCAAUAUUACGGUGA, the “self-splicing fitness (ln)” value runs as follows: (30 °C) -1.93 ± 0.16; (37 °C) -1.62 ± 0.14.

With GAGUAGCAAUAUUACGUGGC, the “self-splicing fitness (ln)” value was -2.33 ± 0.15 (30 °C) and -2.03 ± 0.28 (37 °C).

In the case of GAGUAGCAAUAUUACGUGGG, the “self-splicing fitness (ln)” value (30 °C) is -3.53 ± 0.24 and the “self-splicing fitness (ln)” value (37 °C) is -2.94 ± 0.23.

In the case of GAGUAGCAAUAUUACGUUAA, the “self-splicing fitness (ln)” value was -3.94 ± 0.22 (30 °C) and -2.33 ± 0.18 (37 °C).

Turning to GAGUAGCAAUAUUACGUUAG, the “self-splicing fitness (ln)” value by setting is: (30 °C) -3.69 ± 0.37; (37 °C) -2.96 ± 0.34.

With GAUAAGCAAUAUUACGAAUG, the “self-splicing fitness (ln)” value is, setting by setting: (30 °C) -1.28 ± 0.14; (37 °C) -0.794 ± 0.15.

For the sequence GAUAAGCAAUAUUACGAUCG, the “self-splicing fitness (ln)” value (30 °C) was -0.76 ± 0.12 and the “self-splicing fitness (ln)” value (37 °C) was -0.691 ± 0.14.

Turning to GAUAAGCAAUAUUACGAUCU, the “self-splicing fitness (ln)” value is 0.509 ± 0.17 (30 °C) and -1.55 ± 0.19 (37 °C).

Take GAUAAGCAAUAUUACGAUUU: the “self-splicing fitness (ln)” value is -0.385 ± 0.083 (30 °C) and 1.36 ± 0.12 (37 °C).

In the case of GAUAAGCAAUAUUACGCAUG, the “self-splicing fitness (ln)” value by setting is: (30 °C) -1.21 ± 0.084; (37 °C) -0.777 ± 0.11.

Consider GAUAAGCAAUAUUACGCCUA, for which the “self-splicing fitness (ln)” value (30 °C) was -0.016 ± 0.19 and the “self-splicing fitness (ln)” value (37 °C) was -0.316 ± 0.19.

As for GAUAAGCAAUAUUACGCCUU, the “self-splicing fitness (ln)” value reads like this: (30 °C) -0.931 ± 0.1; (37 °C) -0.199 ± 0.14.

GAUAAGCAAUAUUACGCGAG: the “self-splicing fitness (ln)” value (30 °C) was -1.04 ± 0.073 and the “self-splicing fitness (ln)” value (37 °C) was -0.376 ± 0.079.

With GAUAAGCAAUAUUACGCGCU, the “self-splicing fitness (ln)” value reads like this: (30 °C) -1.44 ± 0.14; (37 °C) -1.47 ± 0.15.

Take GAUAAGCAAUAUUACGCGUA: the “self-splicing fitness (ln)” value (30 °C) is -0.996 ± 0.14 and the “self-splicing fitness (ln)” value (37 °C) is -0.968 ± 0.16.

On to GAUAAGCAAUAUUACGCGUC, for which the “self-splicing fitness (ln)” value (30 °C) was -4.66 ± 0.36 and the “self-splicing fitness (ln)” value (37 °C) was -2.53 ± 0.33.

Regarding GAUAAGCAAUAUUACGCUGG, the “self-splicing fitness (ln)” value reads like this: (30 °C) -2.66 ± 0.14; (37 °C) -2.04 ± 0.2.

As for GAUAAGCAAUAUUACGGAUU, the “self-splicing fitness (ln)” value is, setting by setting: (30 °C) -3.19 ± 0.14; (37 °C) -1.91 ± 0.12.

In the case of GAUAAGCAAUAUUACGGCAC, the “self-splicing fitness (ln)” value is -0.252 ± 0.15 (30 °C) and -0.637 ± 0.17 (37 °C).

As to GAUAAGCAAUAUUACGGCCC, the “self-splicing fitness (ln)” value is -0.576 ± 0.19 (30 °C) and -0.0157 ± 0.28 (37 °C).

In the case of GAUAAGCAAUAUUACGGCUU, the “self-splicing fitness (ln)” value runs as follows: (30 °C) -0.701 ± 0.1; (37 °C) -0.0417 ± 0.14.

As for GAUAAGCAAUAUUACGGUGC, the “self-splicing fitness (ln)” value by setting is: (30 °C) -2.8 ± 0.19; (37 °C) -2.17 ± 0.22.

Consider GAUAAGCAAUAUUACGUAAC, for which the “self-splicing fitness (ln)” value reads like this: (30 °C) -1.22 ± 0.1; (37 °C) -0.811 ± 0.16.

Regarding GAUAAGCAAUAUUACGUAAG, the “self-splicing fitness (ln)” value is -2.38 ± 0.088 (30 °C) and -0.896 ± 0.11 (37 °C).

Consider GAUAAGCAAUAUUACGUCCC, for which the “self-splicing fitness (ln)” value was -0.291 ± 0.2 (30 °C) and -0.349 ± 0.25 (37 °C).

Regarding GAUAAGCAAUAUUACGUCGC, the “self-splicing fitness (ln)” value is, setting by setting: (30 °C) -1.76 ± 0.22; (37 °C) -1.17 ± 0.27.

In the case of GAUAAGCAAUAUUACGUGGC, the “self-splicing fitness (ln)” value (30 °C) was -3.32 ± 0.21 and the “self-splicing fitness (ln)” value (37 °C) is -2.24 ± 0.27.

As for GAUAAGCAAUAUUACGUGUG, the “self-splicing fitness (ln)” value by setting is: (30 °C) -1.96 ± 0.079; (37 °C) -0.282 ± 0.094.
